Experimental data taken from publication PMC4226739 (The Journal of Cell Biology, 2014).
Values belong to the binder of their own block, whether it stands above or below them.

Experiments:
Experiment in all cases: FRAP in micropatterns
[1] = target: tyk2 fused to monomeric EGFP (tyk2-EGFP) (UniProt P29597 1-1187)
[2] = target: STAT2 fused to monomeric EGFP (STAT2-EGFP) (UniProt P52630 1-851)
[3] = target: STAT2 fused to tagRFP-T (STAT2-tagRFP) (UniProt P52630 1-851)
Sequence of STAT2 fused to tagRFP-T (STAT2-tagRFP) (P52630 whole entry, the tested form may be a part): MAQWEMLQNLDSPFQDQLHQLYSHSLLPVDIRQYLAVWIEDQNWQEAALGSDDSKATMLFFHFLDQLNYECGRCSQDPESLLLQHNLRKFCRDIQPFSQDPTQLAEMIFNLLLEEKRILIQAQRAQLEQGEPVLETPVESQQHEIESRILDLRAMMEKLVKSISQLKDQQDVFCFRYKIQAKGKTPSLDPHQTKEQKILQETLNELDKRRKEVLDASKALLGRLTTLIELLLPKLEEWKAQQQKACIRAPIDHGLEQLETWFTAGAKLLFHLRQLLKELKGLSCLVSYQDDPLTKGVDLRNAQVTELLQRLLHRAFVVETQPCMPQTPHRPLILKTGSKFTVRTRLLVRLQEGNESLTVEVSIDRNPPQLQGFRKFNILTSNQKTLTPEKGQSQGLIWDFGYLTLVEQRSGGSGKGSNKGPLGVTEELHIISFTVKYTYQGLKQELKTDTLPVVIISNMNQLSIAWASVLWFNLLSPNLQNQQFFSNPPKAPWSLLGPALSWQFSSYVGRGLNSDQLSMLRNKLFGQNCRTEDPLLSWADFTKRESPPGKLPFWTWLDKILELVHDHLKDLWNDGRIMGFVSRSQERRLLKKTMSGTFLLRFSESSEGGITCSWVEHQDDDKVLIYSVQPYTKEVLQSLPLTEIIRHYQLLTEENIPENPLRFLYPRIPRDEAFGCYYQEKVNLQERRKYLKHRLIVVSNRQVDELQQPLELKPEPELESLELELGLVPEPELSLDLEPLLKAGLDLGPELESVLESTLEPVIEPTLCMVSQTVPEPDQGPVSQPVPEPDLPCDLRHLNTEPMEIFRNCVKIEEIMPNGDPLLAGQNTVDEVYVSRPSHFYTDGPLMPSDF

Sequence of tyk2 fused to monomeric EGFP (tyk2-EGFP) (P29597 whole entry, the tested form may be a part): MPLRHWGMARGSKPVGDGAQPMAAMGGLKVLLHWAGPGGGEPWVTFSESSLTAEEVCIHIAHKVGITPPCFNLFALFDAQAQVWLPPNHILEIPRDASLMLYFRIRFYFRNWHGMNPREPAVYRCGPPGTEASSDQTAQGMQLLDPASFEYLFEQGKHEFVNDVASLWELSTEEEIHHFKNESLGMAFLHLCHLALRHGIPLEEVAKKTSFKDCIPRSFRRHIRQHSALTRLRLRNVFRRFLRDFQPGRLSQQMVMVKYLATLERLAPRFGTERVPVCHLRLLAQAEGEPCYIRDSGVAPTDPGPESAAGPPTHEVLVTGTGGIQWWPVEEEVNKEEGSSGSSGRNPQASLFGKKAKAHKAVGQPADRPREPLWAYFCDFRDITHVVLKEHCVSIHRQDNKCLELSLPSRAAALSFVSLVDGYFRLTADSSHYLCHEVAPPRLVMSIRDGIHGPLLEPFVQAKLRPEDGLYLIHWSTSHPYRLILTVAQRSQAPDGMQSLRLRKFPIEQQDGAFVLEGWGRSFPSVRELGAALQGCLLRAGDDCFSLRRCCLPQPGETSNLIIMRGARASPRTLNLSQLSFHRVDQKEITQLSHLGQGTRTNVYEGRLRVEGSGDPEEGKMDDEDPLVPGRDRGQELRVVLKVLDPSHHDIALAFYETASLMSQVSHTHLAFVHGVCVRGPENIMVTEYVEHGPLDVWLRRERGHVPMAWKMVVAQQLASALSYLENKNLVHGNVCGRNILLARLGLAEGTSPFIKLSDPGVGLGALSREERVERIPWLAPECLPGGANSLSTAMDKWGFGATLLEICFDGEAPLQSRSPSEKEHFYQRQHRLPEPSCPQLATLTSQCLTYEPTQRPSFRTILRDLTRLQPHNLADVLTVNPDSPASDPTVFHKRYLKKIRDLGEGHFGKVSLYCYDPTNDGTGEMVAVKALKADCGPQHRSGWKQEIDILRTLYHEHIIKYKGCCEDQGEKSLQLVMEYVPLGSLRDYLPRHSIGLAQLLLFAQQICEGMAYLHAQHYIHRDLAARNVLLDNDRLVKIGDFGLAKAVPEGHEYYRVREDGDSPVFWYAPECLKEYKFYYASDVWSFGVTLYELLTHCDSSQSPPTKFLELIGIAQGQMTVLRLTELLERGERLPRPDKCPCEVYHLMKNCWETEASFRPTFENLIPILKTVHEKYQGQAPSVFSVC
Sequence of STAT2 fused to monomeric EGFP (STAT2-EGFP) (P52630 whole entry, the tested form may be a part): as the sequence (P52630 whole entry, the tested form may be a part) above

koff [1]: ~0.0025 s⁻¹
B1: IFNAR1 fused to an N-terminal HaloTag (HaloTag-IFNAR1) (receptor)
chain: KNLKSPQKVEVDIIDDNFILRWNRSDESVGNVTFSFDYQKTGMDNWIKLSGCQNITSTKCNFSSLKLNVYEEIKLRIRAEKENTSSWYEVDSFTPFRKAQIGPPEVHLEAEDKAIVIHISPGTKDSVMWALDGLSFTYSLVIWKNSSGVEERIENIYSRHKIYKLSPETTYCLKVKAALLTSWKIGVYSPVHCIKTTVENELPPPENIEVSVQNQNYVLKWDYTYANMTFQVQWLHAFLKRNPGNHLYKWKQIPDCENVKTTQCVFPQNVFQKGIYLLRVQASDGNNTSFWSEEIKFDTEIQAFLLPPVFNIRSLSDSFHIYIGAPKQSGNTPVIQDYPLIYEIIFWENTSNAERKIIEKKTDVTVPNLKPLTVYCVKARAHTMDEKLNKSSVFSDAVCEKTKPGNTSKIWLIVGICIALFALPFVIYAAKVFLRCINYVFFPSLKPSSSIDEYFSEQPLKNLLLSTSEEQIEKCFIIENISTIATVEETNQTDEDHKKYSSQTSQDSGNYSNEDESESKTSEELQQDFV

koff [2]: 0.12 ± 0.05 s⁻¹ | koff [3]: 0.015 ± 0.005 s⁻¹
B2: HaloTag-IFNAR2 (receptor)
chain: ISYDSPDYTDESCTFKISLRNFRSILSWELKNHSIVPTHYTLLYTIMSKPEDLKVVKNCANTTRSFCDLTDEWRSTHEAYVTVLEGFSGNTTLFSCSHNFWLAIDMSFEPPEFEIVGFTNHINVMVKFPSIVEEELQFDLSLVIEEQSEGIVKKHKPEIKGNMSGNFTYIIDKLIPNTNYCVSVYLEHSDEQAVIKSPLKCTLLPPGQESESAESAKIGGIITVFLIALVLTSTIVTLKWIGYICLRNSLPKVLNFHNFLAWPFPNLPPLEAMDMVEVIYINRKKKVWDYNYDDESDSDTEAAPRTSGGGYTMHGLTVRPLGQASATSTESQLIDPESEEEPDLPEVDVELPTMPKDSPQQLELLSGPCERRKSPLQDPFPEEDYSSTEGSGGRITFNVDLNSVFLRVLDDEDSDDLEAPLMLSSHLEEMVDPEDPDNVQSNHLLASGEGTQPTFPSPSSEGLWSEDAPSDQSDTSESDVDLGDGYIMR
